From US20220242963A1, “B-CELL ACTIVATING CD73 ANTIBODIES” (CORVUS PHARMACEUTICALS, INC., priority 2018, published 2022)
Values joined by “and” are separate entries in the source; they are usually repeats but may differ in a detail not shown here. Equal values may be shown once.

What was measured:
[1] = test system: PBMC; experiment: T cell proliferation and IFN-gamma secretion of healthy donor PBMC cultured with AMP; type: cell-based, human; details: CPI-006 at 500 nM, 3 mM AMP, anti-CD3 and anti-CD28, IL-2; FIGS. 1C-1D
Method: FIG. 1A provides a schematic of CD73 structure. […] Each symbol represents an independent donor.
MDA-MB-231 cells (e.g., available at ATCC® as HTB-26™) were incubated with a human IgG1 isotype control, CPI-006, CPX-016, or adenosine 5′-(α,β-methylene)diphosphate (also known as APCP, which is a small molecule inhibitor of CD73 enzymatic activity), prior to addition of 250 μM of adenosine monophosphate (AMP). Phosphate levels were measured in the cell culture supernatant using the Sensolyte Malachite Green assay kit. Peripheral blood mononuclear cells (PBMC) were isolated from healthy donors and labeled with CellTrace™ Violet (ThermoFisher Scientific) prior to culture with 1 μg/mL anti-CD3 and anti-CD28, 200 units/mL IL-2, 3 mM AMP and indicated treatments (CPI-006 at 500 nM; CPX-016 at 500 nM; human IgG1 isotype control at 890 nM). T cell proliferation was measured by Cell Trace Violet dilution and was defined by gating relative to unstimulated PBMC (FIG. 1C). IFN-gamma production was measured in cell culture supernatants by AlphaLISA (FIG. 1D). Results shown in FIGS. 1B-D illustrate that inhibition of CD73 activity has an agonistic effect on immunomodulatory activity.

[2] = test system: peripheral B cells, T cells, NK cells, monocytes; experiment: Phase 1/1B clinical trial: circulating lymphocyte subsets in whole blood by flow cytometry; type: in vivo, human
Method: The highest line at day 10 represents 1 mg/kg, the second highest line at day 10 represents 3 mg/kg, the second lowest line at day 10 represents 6 mg/kg, and the lowest line at day 10 represents 12 mg/kg.
Whole blood was collected pre-treatment or at 0.5 hr or 24 hr after administration of CPI-006 as a single agent (left) or in combination with CPI-444 (right). The absolute number of CD19+ B cells, CD3+ T cells, CD3+CD4+ T cells, CD3+CD8+ T cells, and CD3−CD16+CD56+ NK cells were determined by flow cytometry with quantification beads.
Blood was collected pre-treatment or 0.5 hr after administration of CPI-006. The absolute number of CD19^+ B cells, as well as the percentage of B cells positive for CD73, were determined using flow cytometry.
Whole blood samples from the patients treated with a single dose (i.e., 1 mg/kg, 3 mg/kg, or 6 mg/kg) of CPI-006 monotherapy were analyzed by flow cytometry to further evaluate immunomodulatory effects. Levels of B cells (CD19+CD3−) are reported as a percent of total lymphocytes (gated based on scatter properties), as shown in FIG. 4A. CD73 expression was evaluated with a non-competing anti-CD73 antibody and is reported on B cells (CD19+CD3−) and T cells (CD19−CD3+), as shown in FIG. 4B. Purified B cells from healthy human donors were incubated with CPI-006 or human IgG1 isotype control at concentrations of 0.1 μg/mL, 1 μg/mL, and 10 μg/mL for 30 minutes.

[3] = Phase 1/1B clinical trial: serum levels of free CPI-006 by ELISA; type: in vivo, human
Method: FIGS. 3A-3D show the pharmacokinetics/pharmacodynamics and CD73 receptor occupancy of CPI-006 after a first infusion in human patients. […] The dotted line marks one-hundred percent occupancy CD73 receptor occupancy.
(§1) With reference to Table 1, serum samples were collected from patients treated with CPI-006 alone (i.e., monotherapy) and levels of free CPI-006 were measured by ELISA, as shown in FIG. 3A. Whole blood samples from patients treated with CPI-006 alone were fixed and receptor occupancy was measured by flow cytometry gating on CD73+CD8 T cells, as shown in FIG. 3B. As illustrated in FIGS. 3A-3D, receptor exposure to CPI-006 increases and clearance decreases with increasing doses of CPI-006, and CIP-006 is detectable for 21 days after administration of a single dose of 6 mg/kg or higher. […] Other results from the study are described below and in Table 4. BLQ is below limit of quantification. TBD is to be determined.

[4] = target: T1, CD73 (Homo sapiens, UniProt P21589); experiment: Phase 1/1B clinical trial: CD73 receptor occupancy in peripheral blood by flow cytometry; type: in vivo; details: for sustained CD73 receptor occupancy in peripheral blood: once every 21 days
T1 construct: endogenous in cells; host or cells: Whole blood of cancer patients (CD73+ CD8 T cells)
T1 sequence (P21589 27-549): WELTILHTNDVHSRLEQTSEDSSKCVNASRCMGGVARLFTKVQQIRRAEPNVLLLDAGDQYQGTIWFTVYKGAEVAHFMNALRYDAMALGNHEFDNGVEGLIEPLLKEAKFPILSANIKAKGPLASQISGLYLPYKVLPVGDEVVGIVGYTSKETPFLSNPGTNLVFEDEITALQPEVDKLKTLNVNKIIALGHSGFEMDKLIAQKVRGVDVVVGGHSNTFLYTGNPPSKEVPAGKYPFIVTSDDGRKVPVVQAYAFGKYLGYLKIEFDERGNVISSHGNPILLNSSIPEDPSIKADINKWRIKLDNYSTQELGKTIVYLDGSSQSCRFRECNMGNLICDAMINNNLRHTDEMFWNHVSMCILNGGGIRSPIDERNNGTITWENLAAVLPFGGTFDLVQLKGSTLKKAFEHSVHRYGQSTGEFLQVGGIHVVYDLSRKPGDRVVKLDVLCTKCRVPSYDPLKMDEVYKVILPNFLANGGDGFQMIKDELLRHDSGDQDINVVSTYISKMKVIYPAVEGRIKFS
Method: FIGS. 3A-3D show the pharmacokinetics/pharmacodynamics and CD73 receptor occupancy of CPI-006 after a first infusion in human patients. […] The dotted line marks one-hundred percent occupancy CD73 receptor occupancy. […]
as §1

[5] = 3 mg/kg, patients 4-6 (Pancreatic, Pancreatic, Prostate)
[6] = clinical data, 1, 3, and 6 mg/kg
[7] = with increasing doses of CPI-006, first infusion, FIGS. 3A-3D
[8] = pre-dose versus 30 minutes after administration, FIG. 3D

sustained CD73 receptor occupancy in peripheral blood ([4]; 1 mg/kg and 3 mg/kg doses): not
CD73 receptor occupancy on peripheral B cells [4, 5]: 88.12% and 74.57% and 58.19%
sustained CD73 receptor occupancy in peripheral blood ([4]; 6 mg/kg and 12 mg/kg doses): sustained CD73 receptor occupancy
CD73 receptor occupancy on peripheral B cells ([4]; 6 mg/kg, patients 7-9 (Colorectal, Prostate, SCHN)): 97.90% and 98.31% and 101.60%
receptor occupancy dose dependence [4, 6]: dose proportional
CPI-006 binding site on cell surface CD73 (free CD73) [4, 8]: occupied
total cell surface CD73 [4, 8]: remains unchanged
B1: CPI-006: humanized CD73 antibody, wherein the light chain is SEQ ID NO:8 and the heavy chain is SEQ ID NO:7; IgG1 Fcγ receptor-deficient (antibody, V domains shown)
VH: QVQLVQSGAEVEKPGASVKVSCKASGYTFTSYWITWVRQAPGQGLEWMGDIYPGSGNTNYNEKFKTRVTITADKSTSTAYMELSSLRSEDTAVYYCAKEGGLTTEDYALDYWGQGTLVTV
VL: EIVLTQSPATLSLSPGERATLSCRASKNVSTSGYSYMHWYQQKPGQAPRLLIYLASNLESGIPPRFSGSGYGTDFTLTINNIESEDAAYYFCQHSRELPFTFGQGTKVEIK
adenosine-mediated immunosuppression (T-cell proliferation, IFN-gamma secretion) [1]: relieves adenosine-mediate immunosuppression
% Decrease of Peripheral B cells at C1D1 (0.5 h) [2, 5]: 71.2% and 62.3% and 68.1%
CD73POS B cells levels over time ([2]; 1 to 12 mg/kg, repeated infusions, FIG. 7C): decrease with each infusion of CPI-006, and then partially return to a new steady state level
CD4/CD8 ratios, including CD73NEG subsets ([2]; 0.5 hours after administration, FIGS. 7A-7B): increase
number of circulating cells, all evaluated lymphocyte subsets (B, T, CD4+ T, CD8+ T, NK) ([2]; 0.5 hr post-treatment versus pre-treatment, FIG. 12): decreased
number of circulating CD73+ B cells ([2]; 0.5 hr post-treatment, FIG. 13): substantially decreased
number of circulating CD73− B cells ([2]; 0.5 hr post-treatment, FIG. 13): either unchanged or modestly decreased
number of circulating B cells ([2]; 24 hr post-treatment, FIG. 12): partial return
number of circulating cells, other cell types (T, NK) ([2]; 24 hr post-treatment, FIG. 12): returned to near baseline levels
HLA-DR expression ([2]; cancer patients receiving 6 mg/kg monotherapy, FIG. 7D): increase in HLA-DR expression, followed by a gradual decrease
B lymphocyte trafficking ([2]; clinical data, FIGS. 4A-4B): transient redistribution of B cells
CD73NEG B cells ([2]; following treatment): No significant changes
Serum CPI-006 at C1D8 ([3]; 1 mg/kg, patients 1-3, BLQ is below limit of quantification): BLQ
Serum CPI-006 at C1D8 ([3]; 6 mg/kg, patient 7 (Colorectal)): 23.60 µg/mL
PK dose dependence [3, 6]: dose proportional
time detectable in serum after administration ([3]; single dose of 6 mg/kg or higher): 21 days
clearance [3, 7]: decreases
exposure to CPI-006 [3, 7]: increases
